Measured values: paper PMC5141500

Legend:
[1] = biological target: NTSR1-EL (baculovirus construct with wild-type ICL3) (rat) (UniProt P20789)
[2] = biological target: NTSR1-ELF (baculovirus construct with wild-type ICL3) (rat) (UniProt P20789)

Gq protein, sequence (P50148 whole entry, looked up): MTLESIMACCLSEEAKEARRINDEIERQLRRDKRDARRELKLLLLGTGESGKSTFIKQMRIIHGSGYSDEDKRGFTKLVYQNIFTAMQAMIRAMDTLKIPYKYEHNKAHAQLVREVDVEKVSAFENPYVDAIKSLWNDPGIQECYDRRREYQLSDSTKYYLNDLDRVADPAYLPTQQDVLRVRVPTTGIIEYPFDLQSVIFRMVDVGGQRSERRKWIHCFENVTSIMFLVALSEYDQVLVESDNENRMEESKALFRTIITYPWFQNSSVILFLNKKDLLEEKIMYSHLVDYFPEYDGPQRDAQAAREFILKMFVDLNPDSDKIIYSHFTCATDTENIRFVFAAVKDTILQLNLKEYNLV

Substance	Fold-stimulation by NTS GTPγS: GDP/[35S]GTPγS exchange on Gq at saturating NTS compared to no ligand, urea-washed P2 insect cell membranes and purified Gq protein [1] [fold]	Fold-stimulation by NTS GTPγS: GDP/[35S]GTPγS exchange on Gq at saturating NTS compared to no ligand, urea-washed P2 insect cell membranes and purified Gq protein [2] [fold]	EC50 (NTS) GTPγS, half maximal effective concentration of NTS on the exchange of GDP for GTPγS on Gq [1] [nM]
Gq protein (from UniProt P50148 1-359) (complex)	3.3	5.6	–
neurotensin (NTS) (peptide)	–	–	5.5
